Results on 1 molecule are retold here after patent US6867027B1, “RNA polymerase” (The Institute of Physical and Chemical Research, priority 1997, dated 2005).

Entries after “also recorded” stand apart in the source; their conditions may differ.

Test [1] can be described thus: Inhibition of [α-32P]UTP incorporation by 3′-dATP in the transcription reaction (3′-dNTP incorporation rate). The class given is biochemical. The following applies: compared with wild type T7 RNA polymerase. The method, then:
Ribonucleotide (NTP) and 3′-deoxynucleotide (3′-dNTP) incorporation rates of the mutant T7 RNA polymerase purified in Example 7 were measured as follows.
pBluescript(KS+) plasmid (Stratagene) linearized by reaction with a restriction endonuclease, PvuII, was used as a template for the transcription reaction, and 250 μM each of ATP, CTP, GTP, and UTP, 2 mM of spermidine-(HCl)3, 5 mM of DTT, 40 mM Tris/HCl pH 8.0, 0.1 μl of [α-^32P] UTP (3000 Ci/mmole), and 25 units of the mutant T7 RNA polymerase F644Y/L665P/F667Y were also used for the reaction. For two kinds of reaction mixture (with or without 3′-dATP, final concentration was 100 μM), the reaction was performed at 37° C. for 60 minutes. The whole reaction mixture was spotted on DE81 paper (Whatman), washed three times with phosphate buffer, and dried. The DE81 paper was placed into a scintillation vial, and radioactivity was measured using a scintillation counter (Beckman) for each reaction. Degree of inhibition of the [α-^32P] UTP incorporation was calculated by comparing the values obtained with and without 3′-dATP based on the measured radioactivity. The relative activity obtained from calculated inhibition degree and defined as a relative value to the inhibition degree of the wild type T7 RNA polymerase normalized to 1.000 was shown in Table 1.
The inhibition degree was calculated by using the wild type T7 RNA polymerase, T7 RNA polymerase F644Y, L665P/F667Y obtained in Example 3, mutant T7 RNA polymerase F644Y/L665P, F782Y, F733Y, F646Y or Y639F constructed and purified in the same manner as in Examples 2 and 3 for the reaction instead of the above F644Y/L665P/F667Y mutant, and relative activities are shown in Table 1.
For example, it is meant that the mutant T7 RNA polymerase F644Y/L665P/F667Y is 5.58 times more likely to incorporate 31-dATP in comparison with the wild type enzyme.

Test [2] relates to human thyroid-stimulating hormone (hTSH-β) cDNA PCR product. The test is described as follows: Transcriptional sequencing reaction on PCR product of hTSH-β cDNA (Example 9). The settings on record: four dye terminators, PCR product template, FIG. 18. The class given is biochemical. The procedure:
As the template for PCR, human thyroid-stimulating hormone (hTSH-β) cDNA subcloned into a plasmid derived from BS750 having T7 promoter was used. By using this plasmid […] having hTSH-β with L220 primer (5′-TAACAATTTCACACAGGAAACA-3′ (SEQ ID NO:38)) and 1211 primer (5′-ACGTTGTAAAACGACGGCCAGT-3′ (SEQ ID NO:39)) existing at both sides of the cloning site, PCR reaction was performed in a reaction volume of 20 μl (1 cycle of 94° C. for 2 minutes, 30 cycles of 94° C. for 1 minute, 55° C. for 1 minute, and 72° C. for 1.5 minutes, followed by 72° C. for 5 minutes). The T7 promoter existed in the downstream of 1211 primer of the PCR product obtained from the above PCR reaction.
The transcriptional sequencing reaction was performed by the method of Melton, D. A, [Nucleic Acids Res., 12: 7035-7056 (1984)].
1 μl (about 10 ng) of the above PCR product was used for the sequencing reaction. […]
The dried reaction product was dissolved in 6 μl of formamide/EDTA/Blue dextran loading buffer according to the instruction manual Ver. 1.0 of ABI PRISM 377 DNA Sequencing System available from Perkin-Elmer Japan, and 2 μl of the solution was analyzed by ABI 377 DNA Sequencer and an analysis program (Sequencing Analysis Ver. 3.0) using denatured gel for sequencing analysis which contained 6M urea/4% Long Ranger™ acrylamide solution (FMC) to afford an electropherogram.

B1: F644Y/L665P/F667Y: mutant T7 RNA polymerase introduced with F644Y/L665P/F667Y mutations (protein)
chain: MNTINIAKNDFSDIELAAIPFNTLADHYGERLAREQLALEHESYEMGEARFRKMFERQLKAGEVADNAAAKPLITTLLPKMIARINDWFEEVKAKRGKRPTAFQFLQEIKPEAVAYITIKTTLACLTSADNTTVQAVASAIGRAIEDEARFGRIRDLEAKHFKKNVEEQLNKRVGHVYKKAFMQVVEADMLSKGLLGGEAWSSWHKEDSIHVGVRCIEMLIESTGMVSLHRQNAGVVGQDSETIELAPEYAEAIATRAGALAGISPMFQPCVVPPKPWTGITGGGYWANGRRPLALVRTHSKKALMRYEDVYMPEVYKAINIAQNTAWKINKKVLAVANVITKWKHCPVEDIPAIEREELPMKPEDIDMNPEALTAWKRAAAAVYRKDKARKSRRISLEFMLEQANKFANHKAIWFPYNMDWRGRVYAVSMFNPQGNDMTKGLLTLAKGKPIGKEGYYWLKIHGANCAGVDKVPFPERIKFIEENHENIMACAKSPLENTWWAEQDSPFCFLAFCFEYAGVQHHGLSYNCSLPLAFDGSCSGIQHFSAMLRDEVGGRAVNLLPSETVQDIYGIVAKKVNEILQADAINGTDNEVVTVTDENTGEISEKVKLGTKALAGQWLAYGVTRSVTKRSVMTLAYGSKEYGFRQQVLEDTIQPAIDSGKGPMYTQPNQAAGYMAKLIWESVSVTVVAAVEAMNWLKSAAKLLAAEVKDKKTGEILRKRCAVHWVTPDGFPVWQEYKKPIQTRLNLMFLGQFRLQPTINTNKDSEIDAHKQESGIAPNFVHSQDGSHLRKTVVWAHEKYGIESFALIHDSFGTIPADAANLFKAVRETMVDTYESCDVLADFYDQFADQLHESQLDKMPALPAKGNLNLRDILESDFAFA
Regarding B1, in test [1], the “ability for incorporating 3′-dATP, 3′-dGTP, 3′-dCTP, 3′-dUTP and derivatives thereof” value was “the least bias for the 3′-dATP incorporation among the mutant enzymes prepared; also recorded: markedly improved”. For the same molecule, the sequencing analysis entry in test [2] is recorded as “Excellent sequencing analysis was possible”.
